From patent US20220315633A1 (Janssen / Centocor, published 2022)

Target: T1, human GDF15 receptor (GFRAL) stably over-expressed on SK-N-AS cells (human, UniProt Q6UXV0 19-394)
T1 sequence (looked up): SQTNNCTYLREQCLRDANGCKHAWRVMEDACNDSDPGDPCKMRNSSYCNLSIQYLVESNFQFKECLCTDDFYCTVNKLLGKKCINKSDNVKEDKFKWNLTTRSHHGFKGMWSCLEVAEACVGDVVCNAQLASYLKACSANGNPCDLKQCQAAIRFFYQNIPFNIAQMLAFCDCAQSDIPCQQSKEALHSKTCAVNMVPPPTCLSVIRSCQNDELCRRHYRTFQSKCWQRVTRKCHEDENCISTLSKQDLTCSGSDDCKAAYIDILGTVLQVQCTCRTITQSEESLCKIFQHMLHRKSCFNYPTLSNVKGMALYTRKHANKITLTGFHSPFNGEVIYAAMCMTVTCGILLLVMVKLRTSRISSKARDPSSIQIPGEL
Assay: cell-based or functional assay

EC50, cell-based pAKT (phospho-AKT Ser473) assay: 0.153 nM
B1: Native GDF15 (ligand, UniProt Q99988 197-308, looked up)
chain: ARNGDHCPLGPGRCCRLHTVRASLEDLGWADWVLSPREVQVTMCIGACPSQFRAANMHAQIKTSLHRLKPDTVPAPCCVPASYNPMVLIQKTDTGVSLQTYDDLLAKDCHCI
